The values below come from paper PMC12419008.

Among the targets are FcγRIIIa (F158) (human) (UniProt P08637); FcγRIIIa (V158) (human); FcγRIIa (H131) (human) (UniProt P12318); FcγRIIa (R131) (human); FcγRIIb (human) (UniProt P31994); FcγRI (human) (UniProt P12314).
Assay in all cases: SPR
Experiment [1] deals with APG777 (human (humanized IgG1)).

UniProt P31994, sequence (P31994 43-217): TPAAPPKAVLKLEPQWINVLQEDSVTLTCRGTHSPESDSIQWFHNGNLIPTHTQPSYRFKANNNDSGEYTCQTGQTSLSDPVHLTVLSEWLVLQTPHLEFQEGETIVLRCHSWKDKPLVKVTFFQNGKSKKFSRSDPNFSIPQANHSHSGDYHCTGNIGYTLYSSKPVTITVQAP
UniProt P12314, sequence (P12314 16-292): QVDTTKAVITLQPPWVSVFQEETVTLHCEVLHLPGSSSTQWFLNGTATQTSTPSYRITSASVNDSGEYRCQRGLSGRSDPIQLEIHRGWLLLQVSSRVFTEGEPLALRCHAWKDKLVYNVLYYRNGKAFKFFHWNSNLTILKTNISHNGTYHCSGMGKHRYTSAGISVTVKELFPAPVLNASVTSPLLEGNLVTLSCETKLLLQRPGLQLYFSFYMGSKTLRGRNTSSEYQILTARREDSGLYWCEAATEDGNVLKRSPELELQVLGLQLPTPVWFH
FcγRIIIa (V158) (human), sequence (P08637 17-208): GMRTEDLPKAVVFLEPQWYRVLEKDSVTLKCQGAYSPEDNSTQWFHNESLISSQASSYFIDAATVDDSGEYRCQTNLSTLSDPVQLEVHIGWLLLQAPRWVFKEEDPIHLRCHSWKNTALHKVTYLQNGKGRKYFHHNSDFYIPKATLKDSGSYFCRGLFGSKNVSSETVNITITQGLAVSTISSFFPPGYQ
FcγRIIa (R131) (human), sequence (P12318 34-217): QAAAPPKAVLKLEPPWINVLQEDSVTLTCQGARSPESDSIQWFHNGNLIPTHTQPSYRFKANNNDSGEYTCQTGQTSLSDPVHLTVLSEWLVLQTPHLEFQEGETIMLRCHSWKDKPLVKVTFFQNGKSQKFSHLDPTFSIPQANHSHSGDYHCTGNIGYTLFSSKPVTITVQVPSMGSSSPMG

For orientation: Kd means the equilibrium constant for the complex coming apart. A lower Kd goes with tighter binding. Take rituximab (antibody): the dissociation constant Kd in the experiment with FcγRIIIa (F158) (human) was determined as 0.957 µM; with FcγRIIIa (V158) (human), 0.193 µM; with FcγRIIa (H131) (human) it was 2.93 µM; in the experiment with FcγRIIa (R131) (human), 5.95 µM; with FcγRIIb (human), 15.3 µM.

Substance “human neonatal Fc receptor (huFcRn) (from UniProt P55899 24-365)” had an equilibrium dissociation constant (Kd) in experiment [1] of 0.0944 µM.

Regarding APG777 (antibody), the Kd with FcγRI (human) worked out at 7.88 µM; in the experiment with FcγRIIIa (F158) (human), 56.2 µM; with FcγRIIIa (V158) (human), 12.1 µM.
